Values of other authors as cited in article PMC8355678.

Key:
[1] = target: CXCR3 (Homo sapiens) (UniProt P49682)
[2] = target: CCL2 receptor on monocytes (Homo sapiens) (UniProt P41597)
UniProt P41597, sequence (P41597 whole entry): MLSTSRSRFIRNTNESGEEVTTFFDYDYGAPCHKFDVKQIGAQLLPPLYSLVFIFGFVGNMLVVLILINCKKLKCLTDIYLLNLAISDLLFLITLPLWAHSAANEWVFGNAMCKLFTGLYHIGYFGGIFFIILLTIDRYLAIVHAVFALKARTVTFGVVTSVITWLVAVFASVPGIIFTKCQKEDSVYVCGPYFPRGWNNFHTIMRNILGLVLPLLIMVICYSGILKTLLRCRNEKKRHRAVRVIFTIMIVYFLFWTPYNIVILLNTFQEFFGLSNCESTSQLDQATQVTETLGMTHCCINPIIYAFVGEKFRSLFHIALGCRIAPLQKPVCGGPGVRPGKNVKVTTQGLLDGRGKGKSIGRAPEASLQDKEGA

CCL2, sequence (P13500 24-99): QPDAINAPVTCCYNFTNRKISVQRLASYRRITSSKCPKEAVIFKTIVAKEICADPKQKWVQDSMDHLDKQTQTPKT
UniProt P49682, sequence (P49682 whole entry): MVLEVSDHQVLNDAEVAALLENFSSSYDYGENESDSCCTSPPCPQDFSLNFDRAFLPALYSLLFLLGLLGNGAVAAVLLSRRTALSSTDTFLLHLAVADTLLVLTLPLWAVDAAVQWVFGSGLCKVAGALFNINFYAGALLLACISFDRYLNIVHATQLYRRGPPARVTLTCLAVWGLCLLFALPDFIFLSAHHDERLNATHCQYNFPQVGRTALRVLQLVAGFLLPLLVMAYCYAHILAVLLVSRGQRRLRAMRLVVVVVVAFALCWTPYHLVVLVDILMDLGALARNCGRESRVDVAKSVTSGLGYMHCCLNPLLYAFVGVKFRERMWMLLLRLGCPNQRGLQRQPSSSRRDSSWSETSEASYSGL

Kd [1] [nM]	Substance	Kd [2] [nM]
0.25	CXCL10 (from UniProt P02778)	–
–	CCL2 (from UniProt P13500)	0.77
